The results in this text go back to article PMC9242541, “Importance of Rare DPYD Genetic Polymorphisms for 5-Fluorouracil Therapy in the Japanese Population” (Frontiers in Pharmacology, 2022).

The data set deals with the molecule itself. The data set can be described thus: native gel or EMSA; blue native PAGE (Tris-glycine buffer, 5%-20% polyacrylamide gels), 9 μg of the soluble fraction of transfected 293FT cells per lane, immunoblot with polyclonal anti-human DPD antibody; monomer to dimer. A general note: Mobility shift assays separate free from complexed probe on a gel.

Where a chain is given by its changes, count along the chain named. Names and notes keep the numbering of the source.

B1: DPD variant A191V (enzyme, human, UniProt Q12882 4-1025, looked up)
chain: VLSKDSADIESILALNPRTQTHATLCSTSAKKLDKKHWKRNPDKNCFNCEKLENNFDDIKHTTLGERGALREAMRCLKCADAPCQKSCPTNLDIKSFITSIANKNYYGAAKMIFSDNPLGLTCGMVCPTSDLCVGGCNLYATEEGPINIGGLQQFATEVFKAMSIPQIRNPSLPPPEKMSEAYSAKIVLFGAGPASISCASFLARLGYSDITIFEKQEYVGGLSTSEIPQFRLPYDVVNFEIELMKDLGVKIICGKSLSVNEMTLSTLKEKGYKAAFIGIGLPEPNKDAIFQGLTQDQGFYTSKDFLPLVAKGSKAGMCACHSPLPSIRGVVIVLGAGDTAFDCATSALRCGARRVFIVFRKGFVNIRAVPEEMELAKEEKCEFLPFLSPRKVIVKGGRIVAMQFVRTEQDETGKWNEDEDQMVHLKADVVISAFGSVLSDPKVKEALSPIKFNRWGLPEVDPETMQTSEAWVFAGGDVVGLANTTVESVNDGKQASWYIHKYVQSQYGASVSAKPELPLFYTPIDLVDISVEMAGLKFINPFGLASATPATSTSMIRRAFEAGWGFALTKTFSLDKDIVTNVSPRIIRGTTSGPMYGPGQSSFLNIELISEKTAAYWCQSVTELKADFPDNIVIASIMCSYNKNDWTELAKKSEDSGADALELNLSCPHGMGERGMGLACGQDPELVRNICRWVRQAVQIPFFAKLTPNVTDIVSIARAAKEGGANGVTATNTVSGLMGLKSDGTPWPAVGIAKRTTYGGVSGTAIRPIALRAVTSIARALPGFPILATGGIDSAESGLQFLHSGASVLQVCSAIQNQDFTVIEDYCTGLKALLYLKSIEELQDWDGQSPATVSHQKGKPVPRIAELMDKKLPSFGPYLEQRKKIIAENKIRLKEQNVAFSPLKRNCFIPKRPIPTIKDVIGKALQYLGTFGELSNVEQVVAMIDEEMCINCGKCYMTCNDSGYQAIQFDPETHLPTITDTCTGCTLCLSVCPIVDCIKMVSRTTPYEPKRGVPLSVNPVC
notes: dihydropyrimidine dehydrogenase (DPD), human, DPYD cDNA with a variant found in Japanese individuals; made by site-directed mutagenesis of the wild-type construct; also called 572C > T; source: 293FT cells, transfected (pcDNA3.4), soluble fraction
As for B1, the stoichiometry N (as a rule, a count of units in the complex or per binding partner) stood at 2.

B2: DPD variant Q604L (enzyme, human, UniProt Q12882 4-1025, looked up)
chain: B1 chain with V188A, Q601L
notes: dihydropyrimidine dehydrogenase (DPD), human, DPYD cDNA with a variant found in Japanese individuals; made by site-directed mutagenesis of the wild-type construct; also called 1811A > T; source: 293FT cells, transfected (pcDNA3.4), soluble fraction
Consider B2, for which the “stoichiometry N” value stood at 2.

B3: DPD variant G748D (enzyme, human, UniProt Q12882 4-1025, looked up)
chain: B1 chain with V188A, G745D
notes: dihydropyrimidine dehydrogenase (DPD), human, DPYD cDNA with a variant found in Japanese individuals; made by site-directed mutagenesis of the wild-type construct; also called 2243G > A; source: 293FT cells, transfected (pcDNA3.4), soluble fraction
B3: the “stoichiometry N” value came out at 2.

B4: DPD risk variant I560S (DPYD*13) (enzyme, human, UniProt Q12882 4-1025, looked up)
chain: B1 chain with V188A, I557S
notes: dihydropyrimidine dehydrogenase (DPD), human, DPYD cDNA with a risk variant reported in Caucasians; made by site-directed mutagenesis of the wild-type construct; also called c.1679T>G; 1679T > G (*13); source: 293FT cells, transfected (pcDNA3.4), soluble fraction
B4: the “stoichiometry N” value stood at 2.

B5: DPD variant S939N (enzyme, human, UniProt Q12882 4-1025, looked up)
chain: B1 chain with V188A, S936N
notes: dihydropyrimidine dehydrogenase (DPD), human, DPYD cDNA with a variant found in Japanese individuals; made by site-directed mutagenesis of the wild-type construct; also called 2816G > A; source: 293FT cells, transfected (pcDNA3.4), soluble fraction
On to B5, for which the “stoichiometry N” value was 2.

B6: DPD variant F438V (enzyme, human, UniProt Q12882 4-1025, looked up)
chain: B1 chain with V188A, F435V
notes: dihydropyrimidine dehydrogenase (DPD), human, DPYD cDNA with a variant found in Japanese individuals; made by site-directed mutagenesis of the wild-type construct; also called 1312T > G; source: 293FT cells, transfected (pcDNA3.4), soluble fraction
With B6, the “stoichiometry N” value stood at 2.

B7: DPD variant I843T (enzyme, human, UniProt Q12882 4-1025, looked up)
chain: B1 chain with V188A, I840T
notes: dihydropyrimidine dehydrogenase (DPD), human, DPYD cDNA with a variant found in Japanese individuals; made by site-directed mutagenesis of the wild-type construct; also called 2528T > C; source: 293FT cells, transfected (pcDNA3.4), soluble fraction
Take B7: the “stoichiometry N” value was 2.

B8: DPD variant K384E (enzyme, human, UniProt Q12882 4-1025, looked up)
chain: B1 chain with V188A, K381E
notes: dihydropyrimidine dehydrogenase (DPD), human, DPYD cDNA with a variant found in Japanese individuals; made by site-directed mutagenesis of the wild-type construct; also called 1150A > G; source: 293FT cells, transfected (pcDNA3.4), soluble fraction
On to B8, for which the “stoichiometry N” value came to 2.

B9: DPD variant V826M (enzyme, human, UniProt Q12882 4-1025, looked up)
chain: B1 chain with V188A, V823M
notes: dihydropyrimidine dehydrogenase (DPD), human, DPYD cDNA with a variant found in Japanese individuals; made by site-directed mutagenesis of the wild-type construct; also called 2476G > A; source: 293FT cells, transfected (pcDNA3.4), soluble fraction
With B9, the “stoichiometry N” value is 2.

B10: DPD variant H25R (enzyme, human, UniProt Q12882 4-1025, looked up)
chain: B1 chain with H22R, V188A
notes: dihydropyrimidine dehydrogenase (DPD), human, DPYD cDNA with a variant found in Japanese individuals; made by site-directed mutagenesis of the wild-type construct; also called 74A > G; source: 293FT cells, transfected (pcDNA3.4), soluble fraction
For B10, the “stoichiometry N” value was 2.

B11: DPD variant D291N (enzyme, human, UniProt Q12882 4-1025, looked up)
chain: B1 chain with V188A, D288N
notes: dihydropyrimidine dehydrogenase (DPD), human, DPYD cDNA with a variant found in Japanese individuals; made by site-directed mutagenesis of the wild-type construct; also called 871G > A; source: 293FT cells, transfected (pcDNA3.4), soluble fraction
Turning to B11, the “stoichiometry N” value was determined as 2.

B12: DPD variant R592W (enzyme, human, UniProt Q12882 4-1025, looked up)
chain: B1 chain with V188A, R589W
notes: dihydropyrimidine dehydrogenase (DPD), human, DPYD cDNA with a variant found in Japanese individuals; made by site-directed mutagenesis of the wild-type construct; also called 1774C > T; source: 293FT cells, transfected (pcDNA3.4), soluble fraction
As for B12, the “stoichiometry N” value is 2.

B13: DPD variant V313L (enzyme, human, UniProt Q12882 4-1025, looked up)
chain: B1 chain with V188A, V310L
notes: dihydropyrimidine dehydrogenase (DPD), human, DPYD cDNA with a variant found in Japanese individuals; made by site-directed mutagenesis of the wild-type construct; also called 937G > T; source: 293FT cells, transfected (pcDNA3.4), soluble fraction
For the protein B13, the “stoichiometry N” value came to 2.

B14: DPD variant Y304H (enzyme, human, UniProt Q12882 4-1025, looked up)
chain: B1 chain with V188A, Y301H
notes: dihydropyrimidine dehydrogenase (DPD), human, DPYD cDNA with a variant found in Japanese individuals; made by site-directed mutagenesis of the wild-type construct; also called 910T > C; source: 293FT cells, transfected (pcDNA3.4), soluble fraction
As for B14, the “stoichiometry N” value stood at 2.

B15: DPD variant C29R (enzyme, human, UniProt Q12882 4-1025, looked up)
chain: B1 chain with C26R, V188A
notes: dihydropyrimidine dehydrogenase (DPD), human, DPYD cDNA with a variant found in Japanese individuals; made by site-directed mutagenesis of the wild-type construct; also called 85T > C (*9A, *9B); source: 293FT cells, transfected (pcDNA3.4), soluble fraction
With B15, the “stoichiometry N” value is 2.

B16: DPD variant M166V (enzyme, human, UniProt Q12882 4-1025, looked up)
chain: B1 chain with M163V, V188A
notes: dihydropyrimidine dehydrogenase (DPD), human, DPYD cDNA with a variant found in Japanese individuals; made by site-directed mutagenesis of the wild-type construct; also called 496A > G; source: 293FT cells, transfected (pcDNA3.4), soluble fraction
Consider B16, for which the “stoichiometry N” value came out at 2.

B17: DPD variant V335M (enzyme, human, UniProt Q12882 4-1025, looked up)
chain: B1 chain with V188A, V332M
notes: dihydropyrimidine dehydrogenase (DPD), human, DPYD cDNA with a variant found in Japanese individuals; made by site-directed mutagenesis of the wild-type construct; also called 1003G > A; source: 293FT cells, transfected (pcDNA3.4), soluble fraction
Take B17: the “stoichiometry N” value is 2.

B18: DPD variant V732I (enzyme, human, UniProt Q12882 4-1025, looked up)
chain: B1 chain with V188A, V729I
notes: dihydropyrimidine dehydrogenase (DPD), human, DPYD cDNA with a variant found in Japanese individuals; made by site-directed mutagenesis of the wild-type construct; also called 2194G > A (*6); source: 293FT cells, transfected (pcDNA3.4), soluble fraction
B18: the “stoichiometry N” value came to 2.

B19: DPD variant T990I (enzyme, human, UniProt Q12882 4-1025, looked up)
chain: B1 chain with V188A, T987I
notes: dihydropyrimidine dehydrogenase (DPD), human, DPYD cDNA with a variant found in Japanese individuals; made by site-directed mutagenesis of the wild-type construct; also called 2969C > T; source: 293FT cells, transfected (pcDNA3.4), soluble fraction
B19: the “stoichiometry N” value turned out to be 2.

B20: DPD variant R353C (enzyme, human, UniProt Q12882 4-1025, looked up)
chain: B1 chain with V188A, R350C
notes: dihydropyrimidine dehydrogenase (DPD), human, DPYD cDNA with a variant found in Japanese individuals; made by site-directed mutagenesis of the wild-type construct; expression after SDS-PAGE was below the lower limit of quantification; also called 1057C > T; source: 293FT cells, transfected (pcDNA3.4), soluble fraction
In the case of B20, the “stoichiometry N” value turned out to be 2.

B21: DPD variant A380V (enzyme, human, UniProt Q12882 4-1025, looked up)
chain: B1 chain with V188A, A377V
notes: dihydropyrimidine dehydrogenase (DPD), human, DPYD cDNA with a variant found in Japanese individuals; made by site-directed mutagenesis of the wild-type construct; also called 1139C > T; source: 293FT cells, transfected (pcDNA3.4), soluble fraction
As to B21, the “stoichiometry N” value was 2.

B22: DPD variant H807R (enzyme, human, UniProt Q12882 4-1025, looked up)
chain: B1 chain with V188A, H804R
notes: dihydropyrimidine dehydrogenase (DPD), human, DPYD cDNA with a variant found in Japanese individuals; made by site-directed mutagenesis of the wild-type construct; source: 293FT cells, transfected (pcDNA3.4), soluble fraction
Regarding B22, the “stoichiometry N” value was 2.
